Data reported in US5541078.

Biological target: synthetic peptide 89-122 of Eg 6 (Echinococcus granulosus)
Assay: ELISA on bound peptide, ascites diluted to 1/100 (control)

In the case of “myeloma ascites (SP2/0) (polyclonal serum or antibody)”, the mean of the optical densities (optical density) is reported as 0.12.
